This note sets out measurements from US7446182.

Where two headings read alike, the source gives them in different places.

Test [1] addresses Bacillus anthracis protective antigen (PA), 83 kDa polypeptide (Bacillus anthracis) (UniProt P13423). Put plainly: SPR, PA immobilized on CM5 chip. (In general: Surface plasmon resonance follows binding to a sensor surface in real time, without labels.)
Test [2] shares this target. Put plainly: SPR, PA immobilized on CM5 chip at low coupling density.
The target is the same in test [3]. Put plainly: ELISA on PA; scFv kept 2 h at 4 C before the titration. A general note: In an ELISA, binding on a coated surface is turned into a signal by an enzyme label.
The target is the same in test [4]. Put plainly: SPR, PA immobilized on CM5 chip. The source holds these as a separate data set.

Sequence of Bacillus anthracis protective antigen (PA), 83 kDa polypeptide (Bacillus anthracis) (P13423 30-764 limits assumed): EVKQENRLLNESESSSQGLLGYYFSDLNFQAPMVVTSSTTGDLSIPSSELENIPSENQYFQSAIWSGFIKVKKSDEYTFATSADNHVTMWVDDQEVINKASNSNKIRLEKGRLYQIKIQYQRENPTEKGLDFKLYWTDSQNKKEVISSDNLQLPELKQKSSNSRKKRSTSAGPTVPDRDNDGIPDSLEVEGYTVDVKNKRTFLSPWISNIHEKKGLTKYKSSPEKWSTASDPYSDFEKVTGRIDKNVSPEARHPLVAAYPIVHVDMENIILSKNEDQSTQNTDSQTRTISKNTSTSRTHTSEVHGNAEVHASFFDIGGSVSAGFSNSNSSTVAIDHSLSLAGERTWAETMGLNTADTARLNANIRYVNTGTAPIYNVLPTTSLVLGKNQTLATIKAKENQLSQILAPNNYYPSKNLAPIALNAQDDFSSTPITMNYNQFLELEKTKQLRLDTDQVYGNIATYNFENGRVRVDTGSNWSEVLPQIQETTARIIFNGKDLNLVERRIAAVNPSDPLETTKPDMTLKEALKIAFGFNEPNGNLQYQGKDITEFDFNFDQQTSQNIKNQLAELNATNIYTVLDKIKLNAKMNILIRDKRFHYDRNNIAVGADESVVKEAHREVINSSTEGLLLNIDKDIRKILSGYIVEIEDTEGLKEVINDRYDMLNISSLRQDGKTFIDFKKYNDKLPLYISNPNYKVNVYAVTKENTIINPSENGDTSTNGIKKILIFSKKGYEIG

Consider “14B7 wild type scAb (scFv with a C-terminal human constant kappa domain)”, for which, in test [1], the koff is 0.003 s⁻¹ and the kon turned out to be 290000 M⁻¹ s⁻¹.

Substance “14B7 monoclonal antibody (mouse IgG1 from hybridoma 14B7)” returned a Kd in test [2] of 2.3 nM. For the same substance, in test [1], the koff is 0.00135 s⁻¹ and the on-rate constant (kon) is 500000 M⁻¹ s⁻¹.

In test [1], 14B7 wild type scFv displayed a Kd of 12 nM, a koff of 0.0032 s⁻¹ and a kon of 310000 M⁻¹ s⁻¹. Besides, in test [3], the concentration for a half-maximal effect (EC50 (read off the curve)) amounted to 0.05 µg/mL. Further, the off-rate constant (koff) in test [4] came out at 0.0035 s⁻¹.

“14B7 Fab (papain digest of the 14B7 mouse IgG1)”: in test [1], the Kd was found to be 12 nM, the koff was 0.0033 s⁻¹ and the kon is 300000 M⁻¹ s⁻¹. In test [4], the koff was 0.0035 s⁻¹ and the kon was 310000 M⁻¹ s⁻¹.

One may read the koff as a measure of how fast the partners let go of each other. Higher therefore signals fast dissociation. Usually kon stands for the rate constant with which the complex forms. Higher therefore signals fast association. Broadly, the Kd is a measure of binding affinity in units of concentration. Low readings indicate tighter binding, high ones weaker binding. Usually EC50 (read off the curve) stands for the midpoint of the concentration-response curve.
